Test results taken from US12679878B2, “CRF2 receptor agonists and their use in therapy” (SANOFI, priority 2020, dated 2026).
Starred links: 1 amine or outer side, 2 acyl side, 3 side chain; linkers in the order of their positions; H or OH if unused. Non-standard residues stand in square brackets, D forms with d. Groups on a side chain read outwards from the residue. No end group written: not given here. *: point of attachment. C18 diacid = O=C(O)CCCCCCCCCCCCCCCCC(=O)*; γGlu = O=C(O)[C@H](CCC(=O)[*:2])N[*:1]; Palmitoyl = CCCCCCCCCCCCCCCC(=O)*; AEEA = NCCOCCOCC(=O)O

T1: anti-target CRF1R receptor (UniProt P34998 24-415, limits assumed)
T1 sequence (looked up): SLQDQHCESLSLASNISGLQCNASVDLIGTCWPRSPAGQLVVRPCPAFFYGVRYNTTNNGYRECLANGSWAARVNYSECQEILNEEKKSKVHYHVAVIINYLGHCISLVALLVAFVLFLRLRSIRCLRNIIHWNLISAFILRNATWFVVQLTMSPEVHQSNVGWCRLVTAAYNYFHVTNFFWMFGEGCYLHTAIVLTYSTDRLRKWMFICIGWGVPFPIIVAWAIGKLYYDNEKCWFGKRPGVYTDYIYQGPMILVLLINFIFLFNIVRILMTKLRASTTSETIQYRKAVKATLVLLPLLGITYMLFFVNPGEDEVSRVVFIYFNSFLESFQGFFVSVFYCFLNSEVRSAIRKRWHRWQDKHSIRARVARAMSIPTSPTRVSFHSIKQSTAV

B1: peptide of SEQ ID NO: 11 (peptide)
peptide: FTLSLDVPTKIK([γGlu-Palmitoyl])QKLLKQEKQKKQRQKAKTNAQILAQV-NH2
modifications: N-terminus assumed
SMILES: CCCCCCCCCCCCCCCC(=O)N[C@@H](CCC(=O)NCCCC[C@H](NC(=O)[C@@H](NC(=O)[C@H](CCCCN)NC(=O)[C@@H](NC(=O)[C@@H]1CCCN1C(=O)[C@@H](NC(=O)[C@H](CC(=O)O)NC(=O)[C@H](CC(C)C)NC(=O)[C@H](CO)NC(=O)[C@H](CC(C)C)NC(=O)[C@@H](NC(=O)[C@@H](N)Cc1ccccc1)[C@@H](C)O)C(C)C)[C@@H](C)O)[C@@H](C)CC)C(=O)N[C@@H](CCC(N)=O)C(=O)N[C@@H](CCCCN)C(=O)N[C@@H](CC(C)C)C(=O)N[C@@H](CC(C)C)C(=O)N[C@@H](CCCCN)C(=O)N[C@@H](CCC(N)=O)C(=O)N[C@@H](CCC(=O)O)C(=O)N[C@@H](CCCCN)C(=O)N[C@@H](CCC(N)=O)C(=O)N[C@@H](CCCCN)C(=O)N[C@@H](CCCCN)C(=O)N[C@@H](CCC(N)=O)C(=O)N[C@@H](CCCNC(=N)N)C(=O)N[C@@H](CCC(N)=O)C(=O)N[C@@H](CCCCN)C(=O)N[C@@H](C)C(=O)N[C@@H](CCCCN)C(=O)N[C@H](C(=O)N[C@@H](CC(N)=O)C(=O)N[C@@H](C)C(=O)N[C@@H](CCC(N)=O)C(=O)N[C@H](C(=O)N[C@@H](CC(C)C)C(=O)N[C@@H](C)C(=O)N[C@@H](CCC(N)=O)C(=O)N[C@H](C(N)=O)C(C)C)[C@@H](C)CC)[C@@H](C)O)C(=O)O
B2: peptide of SEQ ID NO: 13 (peptide)
peptide: FTLSLDVPTKIK([AEEA-AEEA-γGlu-C18 diacid])QILFKQQKQKKERQQAEKNKQLLEQI-NH2
modifications: N-terminus assumed
SMILES: CC[C@H](C)[C@H](NC(=O)[C@H](CCC(N)=O)NC(=O)[C@H](CCC(=O)O)NC(=O)[C@H](CC(C)C)NC(=O)[C@H](CC(C)C)NC(=O)[C@H](CCC(N)=O)NC(=O)[C@H](CCCCN)NC(=O)[C@H](CC(N)=O)NC(=O)[C@H](CCCCN)NC(=O)[C@H](CCC(=O)O)NC(=O)[C@H](C)NC(=O)[C@H](CCC(N)=O)NC(=O)[C@H](CCC(N)=O)NC(=O)[C@H](CCCNC(=N)N)NC(=O)[C@H](CCC(=O)O)NC(=O)[C@H](CCCCN)NC(=O)[C@H](CCCCN)NC(=O)[C@H](CCC(N)=O)NC(=O)[C@H](CCCCN)NC(=O)[C@H](CCC(N)=O)NC(=O)[C@H](CCC(N)=O)NC(=O)[C@H](CCCCN)NC(=O)[C@H](Cc1ccccc1)NC(=O)[C@H](CC(C)C)NC(=O)[C@@H](NC(=O)[C@H](CCC(N)=O)NC(=O)[C@H](CCCCNC(=O)COCCOCCNC(=O)COCCOCCNC(=O)CC[C@H](NC(=O)CCCCCCCCCCCCCCCCC(=O)O)C(=O)O)NC(=O)[C@@H](NC(=O)[C@H](CCCCN)NC(=O)[C@@H](NC(=O)[C@@H]1CCCN1C(=O)[C@@H](NC(=O)[C@H](CC(=O)O)NC(=O)[C@H](CC(C)C)NC(=O)[C@H](CO)NC(=O)[C@H](CC(C)C)NC(=O)[C@@H](NC(=O)[C@@H](N)Cc1ccccc1)[C@@H](C)O)C(C)C)[C@@H](C)O)[C@@H](C)CC)[C@@H](C)CC)C(N)=O
B3: peptide of SEQ ID NO: 8 (peptide)
peptide: FTLSLDVPTKIK([γGlu-Palmitoyl])QKLLKQEKQKKQRQKAKTAAQILAQV-NH2
modifications: N-terminus assumed
SMILES: CCCCCCCCCCCCCCCC(=O)N[C@@H](CCC(=O)NCCCC[C@H](NC(=O)[C@@H](NC(=O)[C@H](CCCCN)NC(=O)[C@@H](NC(=O)[C@@H]1CCCN1C(=O)[C@@H](NC(=O)[C@H](CC(=O)O)NC(=O)[C@H](CC(C)C)NC(=O)[C@H](CO)NC(=O)[C@H](CC(C)C)NC(=O)[C@@H](NC(=O)[C@@H](N)Cc1ccccc1)[C@@H](C)O)C(C)C)[C@@H](C)O)[C@@H](C)CC)C(=O)N[C@@H](CCC(N)=O)C(=O)N[C@@H](CCCCN)C(=O)N[C@@H](CC(C)C)C(=O)N[C@@H](CC(C)C)C(=O)N[C@@H](CCCCN)C(=O)N[C@@H](CCC(N)=O)C(=O)N[C@@H](CCC(=O)O)C(=O)N[C@@H](CCCCN)C(=O)N[C@@H](CCC(N)=O)C(=O)N[C@@H](CCCCN)C(=O)N[C@@H](CCCCN)C(=O)N[C@@H](CCC(N)=O)C(=O)N[C@@H](CCCNC(=N)N)C(=O)N[C@@H](CCC(N)=O)C(=O)N[C@@H](CCCCN)C(=O)N[C@@H](C)C(=O)N[C@@H](CCCCN)C(=O)N[C@H](C(=O)N[C@@H](C)C(=O)N[C@@H](C)C(=O)N[C@@H](CCC(N)=O)C(=O)N[C@H](C(=O)N[C@@H](CC(C)C)C(=O)N[C@@H](C)C(=O)N[C@@H](CCC(N)=O)C(=O)N[C@H](C(N)=O)C(C)C)[C@@H](C)CC)[C@@H](C)O)C(=O)O
B4: peptide of SEQ ID NO: 24 (peptide)
peptide: IVLSLD[dV]PTKLK([AEEA-AEEA-γGlu-C18 diacid])QKLLKQERQRKEREQAEKNKRILERV-NH2
modifications: N-terminus assumed
SMILES: CC[C@H](C)[C@H](N)C(=O)N[C@H](C(=O)N[C@@H](CC(C)C)C(=O)N[C@@H](CO)C(=O)N[C@@H](CC(C)C)C(=O)N[C@@H](CC(=O)O)C(=O)N[C@@H](C(=O)N1CCC[C@H]1C(=O)N[C@H](C(=O)N[C@@H](CCCCN)C(=O)N[C@@H](CC(C)C)C(=O)N[C@@H](CCCCNC(=O)COCCOCCNC(=O)COCCOCCNC(=O)CC[C@H](NC(=O)CCCCCCCCCCCCCCCCC(=O)O)C(=O)O)C(=O)N[C@@H](CCC(N)=O)C(=O)N[C@@H](CCCCN)C(=O)N[C@@H](CC(C)C)C(=O)N[C@@H](CC(C)C)C(=O)N[C@@H](CCCCN)C(=O)N[C@@H](CCC(N)=O)C(=O)N[C@@H](CCC(=O)O)C(=O)N[C@@H](CCCNC(=N)N)C(=O)N[C@@H](CCC(N)=O)C(=O)N[C@@H](CCCNC(=N)N)C(=O)N[C@@H](CCCCN)C(=O)N[C@@H](CCC(=O)O)C(=O)N[C@@H](CCCNC(=N)N)C(=O)N[C@@H](CCC(=O)O)C(=O)N[C@@H](CCC(N)=O)C(=O)N[C@@H](C)C(=O)N[C@@H](CCC(=O)O)C(=O)N[C@@H](CCCCN)C(=O)N[C@@H](CC(N)=O)C(=O)N[C@@H](CCCCN)C(=O)N[C@@H](CCCNC(=N)N)C(=O)N[C@H](C(=O)N[C@@H](CC(C)C)C(=O)N[C@@H](CCC(=O)O)C(=O)N[C@@H](CCCNC(=N)N)C(=O)N[C@H](C(N)=O)C(C)C)[C@@H](C)CC)[C@@H](C)O)C(C)C)C(C)C
B5: peptide of SEQ ID NO: 227 (peptide)
peptide: IVLSLD[dV]PIKLK([γGlu-Palmitoyl])QKLLKQQRQRKERQQAEKNKRILERV-NH2
modifications: N-terminus assumed
SMILES: CCCCCCCCCCCCCCCC(=O)N[C@@H](CCC(=O)NCCCC[C@H](NC(=O)[C@H](CC(C)C)NC(=O)[C@H](CCCCN)NC(=O)[C@@H](NC(=O)[C@@H]1CCCN1C(=O)[C@H](NC(=O)[C@H](CC(=O)O)NC(=O)[C@H](CC(C)C)NC(=O)[C@H](CO)NC(=O)[C@H](CC(C)C)NC(=O)[C@@H](NC(=O)[C@@H](N)[C@@H](C)CC)C(C)C)C(C)C)[C@@H](C)CC)C(=O)N[C@@H](CCC(N)=O)C(=O)N[C@@H](CCCCN)C(=O)N[C@@H](CC(C)C)C(=O)N[C@@H](CC(C)C)C(=O)N[C@@H](CCCCN)C(=O)N[C@@H](CCC(N)=O)C(=O)N[C@@H](CCC(N)=O)C(=O)N[C@@H](CCCNC(=N)N)C(=O)N[C@@H](CCC(N)=O)C(=O)N[C@@H](CCCNC(=N)N)C(=O)N[C@@H](CCCCN)C(=O)N[C@@H](CCC(=O)O)C(=O)N[C@@H](CCCNC(=N)N)C(=O)N[C@@H](CCC(N)=O)C(=O)N[C@@H](CCC(N)=O)C(=O)N[C@@H](C)C(=O)N[C@@H](CCC(=O)O)C(=O)N[C@@H](CCCCN)C(=O)N[C@@H](CC(N)=O)C(=O)N[C@@H](CCCCN)C(=O)N[C@@H](CCCNC(=N)N)C(=O)N[C@H](C(=O)N[C@@H](CC(C)C)C(=O)N[C@@H](CCC(=O)O)C(=O)N[C@@H](CCCNC(=N)N)C(=O)N[C@H](C(N)=O)C(C)C)[C@@H](C)CC)C(=O)O
B6: peptide of SEQ ID NO: 15 (peptide)
peptide: FTLSLDVPTKIK([γGlu-Palmitoyl])QKLFKQAKQKKQRQKAKTNAQILARV-NH2
modifications: N-terminus assumed
SMILES: CCCCCCCCCCCCCCCC(=O)N[C@@H](CCC(=O)NCCCC[C@H](NC(=O)[C@@H](NC(=O)[C@H](CCCCN)NC(=O)[C@@H](NC(=O)[C@@H]1CCCN1C(=O)[C@@H](NC(=O)[C@H](CC(=O)O)NC(=O)[C@H](CC(C)C)NC(=O)[C@H](CO)NC(=O)[C@H](CC(C)C)NC(=O)[C@@H](NC(=O)[C@@H](N)Cc1ccccc1)[C@@H](C)O)C(C)C)[C@@H](C)O)[C@@H](C)CC)C(=O)N[C@@H](CCC(N)=O)C(=O)N[C@@H](CCCCN)C(=O)N[C@@H](CC(C)C)C(=O)N[C@@H](Cc1ccccc1)C(=O)N[C@@H](CCCCN)C(=O)N[C@@H](CCC(N)=O)C(=O)N[C@@H](C)C(=O)N[C@@H](CCCCN)C(=O)N[C@@H](CCC(N)=O)C(=O)N[C@@H](CCCCN)C(=O)N[C@@H](CCCCN)C(=O)N[C@@H](CCC(N)=O)C(=O)N[C@@H](CCCNC(=N)N)C(=O)N[C@@H](CCC(N)=O)C(=O)N[C@@H](CCCCN)C(=O)N[C@@H](C)C(=O)N[C@@H](CCCCN)C(=O)N[C@H](C(=O)N[C@@H](CC(N)=O)C(=O)N[C@@H](C)C(=O)N[C@@H](CCC(N)=O)C(=O)N[C@H](C(=O)N[C@@H](CC(C)C)C(=O)N[C@@H](C)C(=O)N[C@@H](CCCNC(=N)N)C(=O)N[C@H](C(N)=O)C(C)C)[C@@H](C)CC)[C@@H](C)O)C(=O)O

How the values were obtained:
rat CRF2R α receptor = rat CRF2R α receptor (rat, UniProt P47866 20-411); test: cell-based or functional assay
[1] = molecular target: T1, anti-target CRF1R receptor; test: cell-based or functional assay

Chain of rat CRF2R α receptor (P47866 20-411): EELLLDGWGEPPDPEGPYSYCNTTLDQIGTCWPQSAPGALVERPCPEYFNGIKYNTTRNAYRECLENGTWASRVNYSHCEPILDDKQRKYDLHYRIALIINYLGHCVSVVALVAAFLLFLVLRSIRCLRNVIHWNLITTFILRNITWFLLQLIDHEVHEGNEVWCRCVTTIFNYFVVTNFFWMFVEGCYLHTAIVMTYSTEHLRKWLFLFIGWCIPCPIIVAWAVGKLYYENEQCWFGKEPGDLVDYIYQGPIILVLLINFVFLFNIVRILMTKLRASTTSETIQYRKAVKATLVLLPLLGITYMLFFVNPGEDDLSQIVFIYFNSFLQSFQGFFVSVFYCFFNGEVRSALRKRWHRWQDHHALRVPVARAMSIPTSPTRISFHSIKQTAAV

Row | Binder | EC50 [nM], 0% HSA (cAMP, A7R5 cells) (rat CRF2R α receptor) [nM] | EC50[nM] 0% HSA (cAMP, CRF1R-overexpression CHO cells) [1] [nM] | Emax (%) (cAMP, CRF1R-overexpression CHO cells) [1]
1 | B1 | 0.01 | > 1000 | 12.7
2 | B2 | 2.5 | > 1000 | 4.3
3 | B3 | 0.11 | > 1000 | 16
4 | B4 | 4.94 | > 1000 | 1.48
5 | B5 | 0.61 |  | 
6 | B6 | 1.38 | > 1000 | 7.75
